Measured values taken from PMC3592467.

Target: CDC5L–GFP (UniProt Q99459)
Experiment: affinity purification with mass spectrometry

CDC5L–GFP, sequence (Q99459 whole entry): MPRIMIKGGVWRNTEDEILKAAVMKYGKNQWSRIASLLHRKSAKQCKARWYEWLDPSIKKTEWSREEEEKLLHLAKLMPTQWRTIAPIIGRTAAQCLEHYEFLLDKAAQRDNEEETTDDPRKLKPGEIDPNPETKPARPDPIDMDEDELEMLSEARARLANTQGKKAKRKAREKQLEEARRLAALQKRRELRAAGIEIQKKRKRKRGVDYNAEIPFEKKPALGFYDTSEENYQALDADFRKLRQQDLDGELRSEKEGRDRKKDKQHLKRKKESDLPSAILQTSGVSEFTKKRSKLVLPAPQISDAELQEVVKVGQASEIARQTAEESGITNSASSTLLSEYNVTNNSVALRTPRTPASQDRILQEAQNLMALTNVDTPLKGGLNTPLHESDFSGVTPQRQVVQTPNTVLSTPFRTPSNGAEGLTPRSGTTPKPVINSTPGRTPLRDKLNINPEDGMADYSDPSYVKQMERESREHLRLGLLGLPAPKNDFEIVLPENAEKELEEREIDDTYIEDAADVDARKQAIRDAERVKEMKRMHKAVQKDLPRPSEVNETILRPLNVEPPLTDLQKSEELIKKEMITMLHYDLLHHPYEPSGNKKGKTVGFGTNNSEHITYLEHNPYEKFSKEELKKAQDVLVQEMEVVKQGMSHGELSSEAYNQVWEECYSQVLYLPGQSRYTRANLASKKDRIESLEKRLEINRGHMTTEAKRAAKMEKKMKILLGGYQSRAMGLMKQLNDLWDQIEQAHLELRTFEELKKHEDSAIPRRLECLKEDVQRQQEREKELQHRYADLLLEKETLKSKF
HSP70, sequence (P11142 whole entry): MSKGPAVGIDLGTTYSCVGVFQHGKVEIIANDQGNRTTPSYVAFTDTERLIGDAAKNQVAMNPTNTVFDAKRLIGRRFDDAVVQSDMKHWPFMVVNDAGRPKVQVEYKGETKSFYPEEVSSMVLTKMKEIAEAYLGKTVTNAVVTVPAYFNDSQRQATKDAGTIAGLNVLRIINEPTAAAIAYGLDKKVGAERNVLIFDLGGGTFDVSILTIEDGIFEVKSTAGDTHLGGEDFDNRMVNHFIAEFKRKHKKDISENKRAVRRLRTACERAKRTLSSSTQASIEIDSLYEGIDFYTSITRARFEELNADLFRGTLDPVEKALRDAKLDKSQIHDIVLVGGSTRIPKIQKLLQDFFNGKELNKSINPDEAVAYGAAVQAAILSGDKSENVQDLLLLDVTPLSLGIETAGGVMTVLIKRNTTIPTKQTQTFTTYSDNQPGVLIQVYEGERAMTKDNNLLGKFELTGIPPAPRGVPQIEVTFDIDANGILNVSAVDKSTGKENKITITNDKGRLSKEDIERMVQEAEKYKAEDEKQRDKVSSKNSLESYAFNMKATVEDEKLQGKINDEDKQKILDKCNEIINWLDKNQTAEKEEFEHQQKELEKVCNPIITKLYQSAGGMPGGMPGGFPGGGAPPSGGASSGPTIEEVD

stoichiometry N (relative to CDC5L): 0.2
stoichiometry with CDC5L as a dimer (CDC5L 2) (per CDC5L dimer): 0.4
Substance: HSP70 (from UniProt P11142 1-646) (natural protein)
